Experimental data reported in US20260022144A1, “ANALGESIC POLYPEPTIDE” (Shanghai Puyou Biomedical Co., Ltd., priority 2022, published 2026).

What was measured:
SNL pain model in rats = experiment: SNL (spinal nerve ligation) pain model in rats, mechanical allodynia test; format: in vivo, rat; details: SD rats, 1 h after administration
Protocol: A summary of the method for inducing pain model in rats by means of spinal nerve ligation is provided hereinafter. Briefly, male SD rats were anesthetized with Zoletil R 50+xylazine hydrochloride (20 mg/kg+8 mg/kg, intraperitoneal injection). The surgical areas on the waist regions of the animals were shaved, and the skin was disinfected with iodophor and 70% v/v ethanol for three times. The left spinal nerves L5 and L6 of the animals were isolated, tightly ligated with 6-0 silk suture, and the wounds were sutured.
On the 11th day post operation, the animals were acclimated to the experimental environment, 15 minutes/day, for 3 consecutive days.
Briefly, after SNL modeling, 24 animals were randomly divided into 3 groups (Groups 2, 3 and 4, N=8/group). Group 1 (a Sham group, for which the 10 animals received essentially the same operation procedure as other groups but their left spinal nerves L5 and L6 were neither isolated nor ligated) was used as the control group. The test articles were administrated to the animals according to the protocol shown in Table 5, and mechanical allodynia tests were respectively performed 1h after administration according to the method as recited in Example 1.
Briefly, after SNL modeling, 30 animals were randomly divided into 3 groups (Group 1, N=6/group; Groups 2 and 3, N=12/group). Various polypeptides of the present disclosure were administered to the animals from Groups 2 and 3, and the animals were subjected to mechanical allodynia tests 1 h after administration according to the method as recited in Example 1.

[1] = tested on: VZV-induced pain model in rats; experiment: VZV-induced pain model in rats, mechanical allodynia (von Frey) test; format: in vivo, rat; details: for 50% PWT (paw withdrawal threshold), analgetic effect: vs placebo
Protocol: A summary of the method for inducing pain model in rats by means of subcutaneous VZV inoculation is provided hereinafter. Briefly, male Sprague Dawley (SD) rats were deeply anesthetized by intraperitoneal injection of a Zoletil R: 50 (30 mg/kg)/xylazine (6 mg/kg) anesthetic at an injection volume of 6 mL/kg, and then the virus inoculation was performed by subcutaneous injection at the footpad area. The infection dose was 22800 TCID50 per animal, and the infection volume was 150 μL for all rats.
Administration was performed on alternate days. Briefly, the test articles were administered by subcutaneous injection at the footpad area on Day 1 and Day 3, respectively. As for Group 2, the administration of SEQ ID NO: 29 was initiated from the first concentration. Namely, the first concentration (10 μg/mL) was administered on Day 1, and the second concentration (20 μg/mL) was administered on Day 3. Pain was measured once after each administration.
Mechanical allodynia tests (also called “von Frey tests”) for pain measurements were performed on the rats one hour after administration of the test articles on Day 1 and Day 3, respectively. In the behavioral test for rats, mechanical allodynia is expressed as the 50% paw withdrawal threshold (PWT), which is calculated according to the following formula:
[formula] • wherein • Xf=final test fiber value used in the test • k=tabular value for the pattern of positive/negative responses (Chaplan et al. 1994, page 62) • δ=mean difference.
Briefly, the rats were placed individually in plexiglass boxes with a grid at the bottom to ensure that the rats' feet could be tested. The rats were acclimated to the environment for 15 minutes prior to the test. After the acclimation was completed, pain (mechanical allodynia) was tested on the center of the sole of the left hind foot of the rats using test fibers. The test fibers included 8 test strengths: 3.61 (0.4 g), 3.84 (0.6 g), 4.08 (lg), 4.31 (2 g), 4.56 (4 g), 4.74 (6 g), 4.93 (8 g) and 5.18 (15 g). During the test, the test fibers were pressed vertically against the skin and forces were applied to bend the fibers for 6-8 seconds with a 5-second interval between each test. During the test, a pain response was recorded if the animals quickly withdrew their feet. The pain response was also recorded if the animal withdrew their feet as the test fibers left the animal's skin. The pain response was not recorded if the animal moved or ambulated, and the test should be repeated. The test was started with 4.31 (2 g). If the animal had pain response, the next test should be performed with a test fiber with a lower strength: if the animal has no pain response, the next test should be performed with a test fiber with a higher strength. The maximum strength of the tested fibers was 5.18 (15 g). The test results were recorded in a table, wherein the presence of pain response was recorded as “x”, and the absence of pain response was recorded as “0”.
The rats were randomly divided into 2 groups, with 8 rats in the placebo group (Group 1, administered with vehicle (normal saline)) and 8 rats in the treatment group (Group 2, administered with 30 mg SEQ ID NO: 29/kg). Briefly, the test articles were administered to the rats on a single day by intravenous injection.
Mechanical allodynia tests were performed on the rats 0.5 h after administration of the test articles according to the method as recited in Example 1, respectively.
The rats were randomly divided into 3 groups, with 8 rats in the placebo group (Group 1, administered with vehicle (normal saline)) and 16 rats in the treatment groups (Groups 2 and 3, 8 rats/group, administered with various polypeptides). Briefly, vehicle (normal saline) was administered to the rats from Group 1 and various polypeptides were administered to the rats from Group 2 (SEQ ID: 29, SEQ ID: 57 and SEQ ID: 49; 10 mg polypeptide/kg) and 3 (SEQ ID: 75 and SEQ ID: 28: 10 mg polypeptide/kg) on a single day by intravenous injection.

B1: SEQ ID NO: 29: exemplary polypeptide of the present disclosure; artificial polypeptide of formula (I) X-Y (protein)
chain: SEKKQPVDLGLLEEDDEFEEFPAEDWAGLDEDEDAHVWEDNWDDDNVEDDFSNQLRATVLLMILVAETPYGAYVLHQKGRMASAFLAA
For B1, the “analgetic effect (50% PWT)” value (SNL pain model in rats; i.v. single administration (SEQ ID NO: 29 30 and 60 mg/kg; SEQ ID NO: 90 and 93 60 mg/kg)) was “certain analgetic effect”, the “analgetic effect of 60 mg/kg compared with 30 mg/kg (50% PWT)” value (SNL pain model in rats; i.v. single administration) was “much higher than that produced from the dose of 30 mg SEQ ID NO: 29/kg” and the “analgetic effect (50% PWT)” value ([1]; 10 mg polypeptide/kg i.v., single administration, tested 0.5 h after administration) was “apparent analgetic effect”. For the same molecule, the “50% PWT (paw withdrawal threshold), analgetic effect” value ([1]; 30 mg/kg i.v., single administration, tested 0.5 h after administration) was “significantly increased the 50% PWT values of the rats” and the “50% PWT (paw withdrawal threshold), analgetic effect” value ([1]; s.c. (footpad) 10 then 20 μg/mL, 50 μL, tested 1 h after administration) was “increased the 50% PWT values of the rats in a dose-dependent manner”.
